Source: publication PMC5521178

Tests used:
Test in all cases: fluorescence polarisation
[1] = target: FITC-labeled full-length caspase-7 S30A/C186A (UniProt P55210)
[2] = target: FITC-labeled full-length caspase-7 C186A phosphorylated by autoactivated PAK2 (UniProt P55210)
[3] = target: FITC-labeled full-length caspase-7 C186A (UniProt P55210)

Work on “caspase-9 constitutive dimer C287A (from UniProt P55211 1-416) (enzyme)” yielded a Kd [1] of 1700 nM, a Kd [2] of over 27000 nM and a Kd [3] of 1800 nM.
